This note sets out measurements from paper PMC6366636.

The target in experiment [1] is Fluorescently labeled EC12 probe (EC12 A36C/Y44W conjugated with Alexa-488) (Manduca sexta). Put plainly: native gel or EMSA.
For experiment [2], the target named is Cry1Ab toxin of Bacillus thuringiensis subsp. berliner 1715 (trypsin-activated) (Bacillus thuringiensis subsp. berliner 1715) (UniProt P0A370). The experiment is described as follows: native gel or EMSA.

“Cry1Ab toxin of Bacillus thuringiensis subsp. berliner 1715 (trypsin-activated) (from UniProt P0A370 1-1155) (natural protein)” returned a Kd in experiment [1] of 19.5 nM.

Substance “EC12_(SQ/AA) (alanine substitution of the serine-glutamine dipeptide in EC12) (domain or fragment)” registered a decrease of the capacity to compete with the EC12 probe, against EC12WT in experiment [2] of 50%.
